Tested on: Arabidopsis thaliana T1 plants
Assay: Topramezone tolerance of transgenic Arabidopsis thaliana T1 plants (pesticide damage grade by bleached leaf area, score, resistance evaluation)
Type: in vivo
Conditions: for Classification and statistics of pesticide damage grade Grade 0 / Classification and statistics of pesticide damage grade Grade 1 / Classification and statistics of pesticide damage grade Grade 2 / Classification and statistics of pesticide damage grade Grade 3: number of plants (of 16) in this grade; for Classification and statistics of pesticide damage grade: Grade 0 / Classification and statistics of pesticide damage grade: Grade 1 / Classification and statistics of pesticide damage grade: Grade 2 / Classification and statistics of pesticide damage grade: Grade 3: number of plants
Procedure, shortened: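 Eighteen days after sowing, wild-type and HPPD-transgenic T1 Arabidopsis receive a topramezone spray at 1×, 2× or 4× field rate (25–100 g ai/ha) or water. Seven days later each plant is graded by its proportion of bleached leaf area.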

[1] = HPPDs from different species, topramezone 25 g ai/ha (1x), 7 DAT
[2] = HPPDs from different species, topramezone 100 g ai/ha (4x), 7 DAT
[3] = HPPDs from different species, score for pesticide damage 0-100, topramezone 25 g ai/ha (1x), 7 DAT
[4] = HPPDs from different species, score for pesticide damage 0-100, topramezone 100 g ai/ha (4x), 7 DAT
[5] = topramezone 25 g ai/ha (1x), HPPDs from ecotypes of Triticum aestivum
[6] = topramezone 100 g ai/ha (4x), HPPDs from ecotypes of Triticum aestivum

Row | Molecule | Classification and statistics of pesticide damage grade Grade 0 [1] | Classification and statistics of pesticide damage grade Grade 1 [1] | Classification and statistics of pesticide damage grade Grade 2 [1] | Classification and statistics of pesticide damage grade Grade 3 [1] | Classification and statistics of pesticide damage grade Grade 0 [2] | Classification and statistics of pesticide damage grade Grade 1 [2] | Classification and statistics of pesticide damage grade Grade 2 [2] | Classification and statistics of pesticide damage grade Grade 3 [2] | Scores [3] | Scores [4] | Resistance evaluation [1] | Resistance evaluation [2] | also measured
1 | MsHPPD-02: native Medicago sativa HPPD, SEQ ID NO: 99 (protein, listed as Medicago sativa, MsHPPD Amino Acid Sequence) MAIETETQTQTGFKLVGFKNFVRANPKSDRFKVKRFHHVEFWCTDATNTARRFSHGLGMPIVAKSDLSTGNQTHASYLLRSGDLNFLFSAAYSPSISLSSPSSTAAIPTFSASNCFSFSASHGLAVRAVAVEVEDAELAFTTSVNNGAIPSSPPVILENHVKLAEVRLYGDVVLRYVSYNDPNPNQNPNLLFLPGFERVSDESSNSSLDFGIRRLDHAVGNVPELSSAVKYVKDFTGFHEFAEFTAEDVGTSESGLNSVVLANNEETVLLPMNEPVYGTKRKSQIETYLEHNEGAGLQHLALKSEDIFRTLREMRKRSGVGGFEFMPSPPVTYYRNLKNRVGDVLSDEQIKECEELGILVDRDDQGTLLQIFTKPIGDRPTIFIEIIQRVGCMLKDEEGKEYQKGGCGGFGKGNFSELFKSIEEYEKTLETRRTA | 0 | 0 | 0 | 16 | 0 | 0 | 0 | 16 | 100 | 100 | non-resistant (non-resistant plants (scores 68-100)) | non-resistant (non-resistant plants (scores 68-100)) | 
2 | MsHPPDm-F372A-02: Medicago sativa HPPD mutant F372A, SEQ ID NO: 102 (protein, MsHPPDm-F372A Amino Acid Sequence) MAIETETQTQTGFKLVGFKNFVRANPKSDRFKVKRFHHVEFWCTDATNTARRFSHGLGMPIVAKSDLSTGNQTHASYLLRSGDLNFLFSAAYSPSISLSSPSSTAAIPTFSASNCFSFSASHGLAVRAVAVEVEDAELAFTTSVNNGAIPSSPPVILENHVKLAEVRLYGDVVLRYVSYNDPNPNQNPNLLFLPGFERVSDESSNSSLDFGIRRLDHAVGNVPELSSAVKYVKDFTGFHEFAEFTAEDVGTSESGLNSVVLANNEETVLLPMNEPVYGTKRKSQIETYLEHNEGAGLQHLALKSEDIFRTLREMRKRSGVGGFEFMPSPPVTYYRNLKNRVGDVLSDEQIKECEELGILVDRDDQGTLLQIATKPIGDRPTIFIEIIQRVGCMLKDEEGKEYQKGGCGGFGKGNFSELFKSIEEYEKTLETRRTA | 5 | 7 | 4 | 0 | 0 | 4 | 9 | 3 | 31 | 65 | moderately resistant (moderately resistant plants (scores 16-33)) | poorly resistant (poorly resistant plants (scores 34-67)) | 
3 | BvHPPD-02: native Beta vulgaris HPPD, SEQ ID NO: 105 (protein, listed as Beta vulgaris, BvHPPD Amino Acid Sequence) MGTLSPQPQTSPSQFKLVGYSNFIRVNPLSDLFPVKRFHHVEFWCGDATNVSRRFSWGLGMPIVAKSDLSTGNSVHASYLLRSGELHFLFTSPYSPSLSSPSSATIPTFSFSLFTSFLTSHGLAVRAVAVEVQDAEAAFHISVSNGASPVSPPIRLHDGVVLSEVHLYGDVVLRYVSTSSVVDGIFLPGFEEMLGESSFQELDFGLRRLDHAVGNVPELAPAIEYVKKFTGFHEFAEFTTEDVGTSESGLNSAVVANNDETVLFPMNEPVYGTKRKSQIQTYLEHNEGAGVQHLALMSEDIFWTLREMRKRSGLGGFEFMPSPPPTYYRNLRNRAADVLSEEQMKECEELGILVDKDDQGTLLQIFTKPIGDRPTMFIEIIQRIGCMMKDEEGKVYQKGGCGGFGKGNFSELFKSIEEYEKTLERKPIADTNAT | 0 | 0 | 0 | 16 | 0 | 0 | 0 | 16 | 100 | 100 | non-resistant (non-resistant plants (scores 68-100)) | non-resistant (non-resistant plants (scores 68-100)) | 
4 | BvHPPDm-F372A-02: Beta vulgaris HPPD mutant F372A, SEQ ID NO: 108 (protein, BvHPPDm-F372A Amino Acid Sequence) MGTLSPQPQTSPSQFKLVGYSNFIRVNPLSDLFPVKRFHHVEFWCGDATNVSRRFSWGLGMPIVAKSDLSTGNSVHASYLLRSGELHFLFTSPYSPSLSSPSSATIPTFSFSLFTSFLTSHGLAVRAVAVEVQDAEAAFHISVSNGASPVSPPIRLHDGVVLSEVHLYGDVVLRYVSTSSVVDGIFLPGFEEMLGESSFQELDFGLRRLDHAVGNVPELAPAIEYVKKFTGFHEFAEFTTEDVGTSESGLNSAVVANNDETVLFPMNEPVYGTKRKSQIQTYLEHNEGAGVQHLALMSEDIFWTLREMRKRSGLGGFEFMPSPPPTYYRNLRNRAADVLSEEQMKECEELGILVDKDDQGTLLQIATKPIGDRPTMFIEIIQRIGCMMKDEEGKVYQKGGCGGFGKGNFSELFKSIEEYEKTLERKPIADTNAT | 0 | 6 | 10 | 0 | 0 | 0 | 4 | 12 | 54 | 92 | poorly resistant (poorly resistant plants (scores 34-67)) | non-resistant (non-resistant plants (scores 68-100)) | 
5 | NtHPPD-02: native Nicotiana tabacum HPPD, SEQ ID NO: 111 (protein, listed as Nicotiana tabacum, NtHPPD Amino Acid Sequence) MGKLETVTTTSAAAADDSSELTTNFKLVGFKNFIRTNPRSDFFSVKSFHHIEFWCGDATNTARRFSWSLGMPIAAKSDLSTGNSVHASYLLRPVSGSLQFLFTAPYSPSISTPSSAAIPSFSTSTHRSFTTTHGLGVRAVALEVENAYTAFSASVSRGAKPMFEPVTIDEQVAMAEVHLYGDVVLRFVSYLKDADNLVFLPGFEAMDETASYKELDYGIRRLDHAVGNVPELGPVVDYIKRFTGFHEFAEFTAEDVGTAESGLNSMVLANNDETVLLPLNEPVYGTKRKSQIQTYLEHNEGAGVQHLALVTEDIFKTLTEMRKRSGVGGFEFMPSPPPTYYKNLKNRAGDVLSDEQILACEELGILVDRDDQGTLLQIFTKPVGDRPTIFIEIIQRIGCMLKDGKGQVYQKGGCGGFGKGNFSELFRSIEEYEKTLEAKQANQVAAA | 0 | 0 | 0 | 16 | 0 | 0 | 0 | 16 | 100 | 100 | non-resistant (non-resistant plants (scores 68-100)) | non-resistant (non-resistant plants (scores 68-100)) | 
6 | TaHPPD1m-F372A-02: Triticum aestivum ecotype 1 HPPD mutant F372A, SEQ ID NO: 180 (protein, TaHPPD1m-F372A Amino Acid Sequence) MMNAHANLALAALAFPAHMPNSKSSHIRSRRTRRPLLPLTMAAHPPIRTNIGMSTHGSASGGGEQAGISSTDRFRMIDFHHVEFWCADAASAAARFSFGLGVPLAAESGLSTGNTAHASHLLHSRSGSLALLFSAPYAQGDAVTASVPSFDADAARRFTADHGLAVRAMAVRVPDAGEAFRTSVDAGARPSFAPAELGHGFELAEVQLYGDVVLRFVSHPDDTAIPFLPGFGSVPSSGATPDYGLTRFDHIVGDVPHLAPVAAYIAGFTGFHEFSRFTADQVGTAESSLNVVVLANNSENVLLTVVEPVHGTKRRSQVQTYLDHHGGPGVQHLAMASNDVLGTLRKIRGRSTMGGFELLPPPPASYYDDVRRRAGDVLSEAQIKGCQELGVRVDKDDHGGVVLQIATKAAGDRPTLLLEFIQRIGCMDKDENGQEYQRGGCGGFGQGNVTELFKSIEDYEKSLDASARLAA |  |  |  |  |  |  |  |  |  |  |  |  | Resistance evaluation [5]: highly resistant (highly resistant plants (scores 0-15)); Scores [5]: 0; Classification and statistics of pesticide damage grade: Grade 0 [5]: 16; Classification and statistics of pesticide damage grade: Grade 1 [5]: 0; Classification and statistics of pesticide damage grade: Grade 2 [5]: 0; Classification and statistics of pesticide damage grade: Grade 3 [5]: 0; Resistance evaluation [6]: highly resistant (highly resistant plants (scores 0-15)); Scores [6]: 2; Classification and statistics of pesticide damage grade: Grade 0 [6]: 15; Classification and statistics of pesticide damage grade: Grade 1 [6]: 1; Classification and statistics of pesticide damage grade: Grade 2 [6]: 0; Classification and statistics of pesticide damage grade: Grade 3 [6]: 0

— US20230212587A1, “Mutant Hydroxyphenylpyruvate Dioxygenase Polypeptide, Encoding Gene Thereof and Use Therefor” (Beijing Dabeinong Biotechnology Co., Ltd., priority 2019, published 2023)
